For experiment [1], the target named is monkey GPRC5D (monkey (cyno)). The experiment can be described thus: FACS, CHOK1-cynoGPRC5D high pool. For orientation: A flow cytometer gives signals particle by particle.
Experiment [2] deals with T1, human GPRC5D (human, UniProt Q9NZD1 1-345).
T1 construct: the cell line is named under assay; also called hGPRC5D; G protein coupled receptor C5 family subtype D
The experiment can be described thus: FACS, HEK293T-hGPRC5D high pool.

Experiment [3] addresses monkey GPRC5D (monkey (cyno)). The experiment is described as follows: FACS, HEK293T-cynoGPRC5D high pool.
The target in experiment [4] is T1, human GPRC5D. The experiment can be described thus: FACS, CHOK1-hGPRC5D high pool.
Experiment [5] addresses hGPRC5D-LVP protein (human) (UniProt Q9NZD1). The experiment is described as follows: competitive ELISA, competitor Biotin-5F11; antibody at 1.85 nM. Background: ELISA stands for enzyme-linked immunosorbent assay.
The target of experiment [6] is T1, human GPRC5D. The experiment can be described thus: FACS, RPMI-8226 cells. The protocol:
(§1) The desired cells were scale-up cultured in a T-75 cell culture flask to the logarithmic growth phase. NCI-H929, MolP-8 and RPMI-8226 cells were collected and washed with PBS buffer 2 times. After counting the cells, the cell pellet was resuspended with [PBS+2% (w/v) BSA] blocking solution to 2×10⁶ cells/ml, and added to a 96-well FACS reaction plate at 50 μl/well, and then the chimeric antibody test sample was added at 50 μl/well, and incubated on ice for 1 h. […] The obtained mixture was centrifuged and washed 3 times with a PBS buffer, and FACS (FACS CantoII, purchased from BD Company) was used for detection and result analysis. Data analysis was performed by software (Flowjo) to obtain the mean fluorescence intensity (MFI) of the cells. Then a software (GraphPad Prism8) was used for analysis, the analysis results are shown in Table 9 and FIGS. 9A-9C, 10A-10C and 11A-11C.

Experiment [7] deals with hGPRC5D-LVP protein (human) (UniProt Q9NZD1). The experiment is described as follows: competitive ELISA, competitor Biotin-5F11; antibody at 5.56 nM.
Sequence of hGPRC5D-LVP protein (human) (Q9NZD1 whole entry): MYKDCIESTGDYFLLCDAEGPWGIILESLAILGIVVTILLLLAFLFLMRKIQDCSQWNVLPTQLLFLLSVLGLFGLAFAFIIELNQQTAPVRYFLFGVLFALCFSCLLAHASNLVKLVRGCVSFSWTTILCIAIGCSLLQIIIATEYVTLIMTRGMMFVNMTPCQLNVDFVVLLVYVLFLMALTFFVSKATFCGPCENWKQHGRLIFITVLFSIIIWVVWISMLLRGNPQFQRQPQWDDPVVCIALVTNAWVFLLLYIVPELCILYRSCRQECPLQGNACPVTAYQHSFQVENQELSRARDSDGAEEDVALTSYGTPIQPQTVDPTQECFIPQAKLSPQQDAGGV
Experiment [8] shares this target. The experiment is described as follows: competitive ELISA, competitor Biotin-5F11; antibody at 0.62 nM.
Experiment [9] shares this target. The experiment is described as follows: competitive ELISA, competitor Biotin-5F11; antibody at 0.07 nM.
Experiment [10] shares this target. The experiment can be described thus: competitive ELISA, competitor Biotin-5F11; antibody at 50.00 nM.
Experiment [11] shares this target. The experiment is described as follows: competitive ELISA, competitor Biotin-5F11; antibody at 16.67 nM.
The target is the same in experiment [12]. The experiment can be described thus: competitive ELISA, competitor Biotin-5F11; antibody at 0 nM.
For experiment [13] the target is unchanged. The experiment can be described thus: competitive ELISA, competitor Biotin-5F11; antibody at 0.21 nM.
In experiment [14] the target is T1, human GPRC5D. The experiment is described as follows: FACS, MolP-8 cells.
For experiment [15], the target named is T1, human GPRC5D. The experiment is described as follows: FACS, NCI-H929 cells. The protocol: as §1

“And” between values parts separate entries of the source, which are not always exact repeats. Equal entries are not always repeated.

T1 sequence (Q9NZD1 whole entry): as above
Sequence of monkey GPRC5D (monkey (cyno)) (Q9NZD1 other isoform, or with tags, fused parts or gaps): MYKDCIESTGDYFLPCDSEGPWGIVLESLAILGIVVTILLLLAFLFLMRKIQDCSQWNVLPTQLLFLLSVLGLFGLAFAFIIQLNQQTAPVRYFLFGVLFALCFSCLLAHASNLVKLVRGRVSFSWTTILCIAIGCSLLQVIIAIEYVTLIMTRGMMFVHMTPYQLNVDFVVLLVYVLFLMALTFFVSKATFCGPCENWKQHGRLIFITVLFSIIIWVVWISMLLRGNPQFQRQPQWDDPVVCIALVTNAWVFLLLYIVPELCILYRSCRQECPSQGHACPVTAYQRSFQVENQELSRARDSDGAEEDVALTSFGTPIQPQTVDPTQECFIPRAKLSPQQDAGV

Consider IgG subtype control (antibody), for which the values for the Mean fluorescence density in experiment [1] and in [3] were 52.9 and 18.2, respectively. In the experiment with human GPRC5D [2], this molecule displayed a Cell mean fluorescence density of 18.9. This molecule registered a Mean fluorescence intensity in the experiment with human GPRC5D [4] of 56.4.
On to anti-hel-hIgG1 (antibody), for which the OD450 was 1.16 and 0.7 and 0.89 in [5]; 1.14 and 0.69 and 0.87 in experiment [7]; 1.2 and 0.67 and 0.88 in experiment [8]; 1.24 and 0.62 and 0.92 in experiment [9]; 1.16 and 0.63 and 0.89 in experiment [10]; 1.15 and 0.65 and 0.9 in experiment [11]. For the same molecule, the OD450 was 1.22 and 0.57 and 0.94 in experiment [12]; 1.27 and 0.68 and 0.87 in [13]. Besides, the Maximum mean fluorescence intensity in the experiment with human GPRC5D [6] was 108 and 106 and 85; in the experiment with human GPRC5D [14], 81 and 103 and 90; with human GPRC5D [15], 85 and 74.

B1: 5F11-hIgG1 (antibody, V domains shown)
VH: EVQLVESGGGLVQPGRSLKLSCAASGFSFSNYGMAWVRQAATKGLEWVASISTGGGNTYYRDSVKGRFIVSRDNAKNTQYLQMDSLRSEDTATYYCTRHDRGGLYWGQGVMVTVSS
VL: DIVMTQAPLSVSVTPGESASISCRSSKSLLHSNGITYVYWYFQKPGKSPQVLIYRMSNLASGVPDRFSGSGSETDFTLKISRVEAEDVGIYHCGQLLENPYTFGAGTELELKR
notes: Control antibody; VH and VL from WO 2019154890 A1 recombined into human IgG1 CH and CL expression vectors; also called h5F11-hIgG1; positive control antibody 5F11
The term EC50 denotes the concentration giving half of the maximal effect. B1: the EC50 with human GPRC5D [6] is 3.17 nM and 2.86 nM and 6.48 nM; in the experiment with human GPRC5D [15], 1.25 nM and 3.5 nM and 1.97 nM.

(Values after patent US20250145705A1 (SHANDONG SIMCERE BIOPHARMACEUTICAL, published 2025).)
